This note sets out measurements from US20230331872A1 (CYTOIMMUNE THERAPEUTICS, published 2023).

The target in this test is T1, Recombinant Human NKG2D, amino acid Phe78-Val216 (Accession #P26718) (Biolegends, #781908) (human, UniProt P26718 78-216).
T1 construct: range 78-216; Bought reagent; also called NKG2D-fusion protein; CD314
T1 sequence (looked up): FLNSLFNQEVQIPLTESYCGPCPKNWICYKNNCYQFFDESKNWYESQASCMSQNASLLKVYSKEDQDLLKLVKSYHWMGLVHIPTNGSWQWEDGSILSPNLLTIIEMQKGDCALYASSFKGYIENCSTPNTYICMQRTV
The test can be described thus: home developed BiKE detection ELISA with NKG2D-fusion protein coated plate, 72 h serum-free NK cell supernatant. How it is done:
An unique ELISA assay was developed for detecting the concentration of full human Source Scfv-anti NKG2D and GPRCSD. Firstly, the Nunc MaxiSorp™ flat-bottom plate (Invitrogen™, 44-2404-21) was coated with 100 ng/well of Recombinant Human NKG2D, amino acid Phe78-Va1216 (Accession #P26718) (Biolegends, #781908) dissolved in 100 μl of DPBS (Gibco, 14190) at 4 degree overnight. After washing with 1x DPBS buffer with final 0.05% Tween 20 and blocking with 1% BSA in 1x DPBS buffer with final 0.05% Tween 20, 100 μl of samples and standard in blocking buffer were added to each well. The standard used in this assay was a human anti human NKG2D antibody, CD314 (NKG2D)-PE, human, Cat: 130-111-645, recombinant human IgG1, Miltenyi Biotec GmbH (0.25 mg/ml). For detection, a Biotinylated Goat anti-Human IgG (H+L) Cross-Adsorbed Secondary Antibody and HRP-Conjugated Streptavidin (Thermo Scientific™, N100), as well as 1-Step™ Ultra TMB-ELISA Substrate Solution, (Bio-Rad #34029). Stop buffer used was 1 M H₃PO₄.
0.5-1×10⁶ transduced NK cells (FIG. 39) were seeded and cultured in serum free media for 72 hours. Supernatant was subsequently collected, centrifuged, and immediately added to IL-15 pre-coated ELISA plate (R&D Systems S1500) and home developed BiKE detection ELISA with NKG2D-fusion protein coated plate. […] Data present here was as average concentration from four independent donors as mean±SD.
In general terms: In an ELISA, binding on a coated surface is turned into a signal by an enzyme label.

B1: GPRC5D-NKG2D BiKE (GN1-BiKE) secreted from NK cells transduced with P61: GN1-BiKE BCMA-CAR--SIL-15-RQR8 (bispecific antibody, human IgG4 S228P, F234A L235A, N297Q)
chain: DIQMTQSPSSLSASVGDRVTITCKASQNVATHVGWYQQKPGKAPKRLIYSASYRYSGVPSRFSGSGSGTEFTLTISNLQPEDFATYYCQQYNRYPYTFGQGTKLEIKGGGGSGGGGSGGGGSQVQLVQSGAEVKKPGASVKVSCKASGYSFTGYTMNWVRQAPGQGLEWMGLINPYNSDTNYAQKLQGRVTMTTDTSTSTAYMELRSLRSDDTAVYYCARVALRVALDYWGQGTLVTVSSPSGQAGAAASESLFVSNHAYQSALTQPASVSGSPGQSITISCSGSSSNIGNNAVNWYQQLPGKAPKLLIYYDDLLPSGVSDRFSGSKSGTSAFLAISGLQSEDEADYYCAAWDDSLNGPVFGGGTKLTVLGGGGSGGGGSGGGGSQVQLVESGGGLVKPGGSLRLSCAASGFTFSSYGMHWVRQAPGKGLEWVAFIRYDGSNKYYADSVKGRFTISRDNSKNTLYLQMNSLRAEDTAVYYCAKDRGLGDGTYFDYWGQGTTVTVSSESKYGPPCPPCPAPEAAGGPSVFLFPPKPKDTLMISRTPEVTCVVVDVSQEDPEVQFNWYVDGVEVHNAKTKPREEQFQSTYRVVSVLTVLHQDWLNGKEYKCKVSNKGLPSSIEKTISKAKGQPREPQVYTLPPSQEEMTKNQVSLTCLVKGFYPSDIAVEWESNGQPENNYKTTPPVLDSDGSFFLYSRLTVDKSRWQEGNVFSCSVMHEALHNHYTQKSLSLSLGK
notes: also called IL2 SP BiKE; GPRC5D-NKG2D BiKE-BCMA CAR-SIL-15-RQR8-P61
Regarding B1, the binding result is on record as “binds”.

B2: NKG2D-GPRC5D BiKE (NG2-BiKE) secreted from NK cells transduced with P62: NG2-BiKE BCMA-CAR--SIL-15-RQR8 (bispecific antibody, human IgG4 S228P, F234A L235A, N297Q)
chain: QVQLVESGGGLVKPGGSLRLSCAASGFTFSSYGMHWVRQAPGKGLEWVAFIRYDGSNKYYADSVKGRFTISRDNSKNTLYLQMNSLRAEDTAVYYCAKDRGLGDGTYFDYWGQGTTVTVSSGGGGSGGGGSGGGGSQSALTQPASVSGSPGQSITISCSGSSSNIGNNAVNWYQQLPGKAPKLLIYYDDLLPSGVSDRFSGSKSGTSAFLAISGLQSEDEADYYCAAWDDSLNGPVFGGGTKLTVLPSGQAGAAASESLFVSNHAYQVQLVQSGAEVKKPGASVKVSCKASGYSFTGYTMNWVRQAPGQGLEWMGLINPYNSDTNYAQKLQGRVTMTTDTSTSTAYMELRSLRSDDTAVYYCARVALRVALDYWGQGTLVTVSSGGGGSGGGGSGGGGSDIQMTQSPSSLSASVGDRVTITCKASQNVATHVGWYQQKPGKAPKRLIYSASYRYSGVPSRFSGSGSGTEFTLTISNLQPEDFATYYCQQYNRYPYTFGQGTKLEIKESKYGPPCPPCPAPEAAGGPSVFLFPPKPKDTLMISRTPEVTCVVVDVSQEDPEVQFNWYVDGVEVHNAKTKPREEQFQSTYRVVSVLTVLHQDWLNGKEYKCKVSNKGLPSSIEKTISKAKGQPREPQVYTLPPSQEEMTKNQVSLTCLVKGFYPSDIAVEWESNGQPENNYKTTPPVLDSDGSFFLYSRLTVDKSRWQEGNVFSCSVMHEALHNHYTQKSLSLSLGK
notes: also called IL2 SP BiKE; NKG2D-GPRC5D BiKE-BCMA CAR-SIL-15-RQR8-P62
Consider B2, for which the binding result is “binds”.
